Biological target: the molecule itself
Experiment: non-reducing SDS-PAGE and western blot; culture supernatants of HEK293T cells transfected with a p19 expression vector, western blot under non-reducing conditions

B1: mouse IL-23 p19 from HEK293T cells transfected with a p19 expression vector (vector not named) (natural protein, UniProt Q9EQ14 22-196, looked up)
chain: VPRSSSPDWAQCQQLSRNLCMLAWNAHAPAGHMNLLREEEDEETKNNVPRIQCEDGCDPQGLKDNSQFCLQRIRQGLAFYKHLLDSDIFKGEPALLPDSPMEQLHTSLLGLSQLLQPEDHPRETQQMPSLSSSQQWQRPLLRSKILRSLQAFLAIAARVFAHGAATLTEPLVPTA
notes: Interleukin-23 subunit alpha (p19), mouse; source: HEK293T, transfected, in culture supernatant
stoichiometry N: 2
